According to patent US20160177392A1:

Target: soybean alpha-SNAP from the Rhg1 locus, full length, with C-terminal six-histidine tag (soybean (Glycine max))
Experiment: gel filtration (Superdex 75); HgSLP-1 alone eluted at fraction 23, albumin standard (67 kDa) at fraction 12, chymotrypsinogen A (25 kDa) at fraction 30

Substance “Heterodera glycines SNARE-like protein 1 (HgSLP-1), full length, expressed in E. coli” has an elution fraction of HgSLP-1 in gel filtration of 15.
